Data: article PMC5960625 (Biochemical pharmacology, 2018)

T1: constitutive androstane receptor (hCAR1) (Homo sapiens, UniProt Q14994)
T1 sequence (Q14994 109-352 limits assumed): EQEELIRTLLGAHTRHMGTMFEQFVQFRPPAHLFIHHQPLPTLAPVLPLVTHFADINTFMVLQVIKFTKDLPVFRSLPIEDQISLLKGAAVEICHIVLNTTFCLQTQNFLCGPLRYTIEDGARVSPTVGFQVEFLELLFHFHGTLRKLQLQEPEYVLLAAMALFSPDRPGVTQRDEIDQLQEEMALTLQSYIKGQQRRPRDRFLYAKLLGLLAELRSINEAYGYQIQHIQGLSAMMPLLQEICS

T2: human CAR ligand-binding domain (hCAR1-LBD), purified (human)
T2 chain: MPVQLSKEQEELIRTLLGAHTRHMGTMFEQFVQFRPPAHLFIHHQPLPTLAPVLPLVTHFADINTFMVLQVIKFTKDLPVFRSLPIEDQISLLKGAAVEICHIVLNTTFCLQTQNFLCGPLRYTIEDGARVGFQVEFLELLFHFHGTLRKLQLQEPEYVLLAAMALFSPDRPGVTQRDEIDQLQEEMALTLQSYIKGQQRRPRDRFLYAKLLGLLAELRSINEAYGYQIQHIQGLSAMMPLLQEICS


Key:
[1] = biological target: T1, constitutive androstane receptor (hCAR1); assay: SPR; type: binding
[2] = biological target: GAL4DBD-NCoR fusion (nuclear receptor co-repressor); assay: two-hybrid
[3] = biological target: GAL4DBD-SMRT fusion (silencing mediator for retinoid or thyroid hormone receptors); assay: two-hybrid
[4] = biological target: T2, human CAR ligand-binding domain …; assay: HDX-MS

Molecule | Kd [1] | loss of interaction [2] | loss of interaction [3] | binding result [4]
CCOC(=O)Nc1ccc2c(c1)N(C(=O)CN(CC)CC)c1ccccc1CC2 [CINPA1] | ~548 µM |  |  | 
VP16AD-hCAR1 F217A (full length) (receptor) |  | 75% | 50% | 
VP16AD-hCAR1 Y224A (full length) (receptor) |  | 75% | 50% | 
ASNLGLEDIIRKALMGSFD [NCoR1-3 cofactor peptide] |  |  |  | binds
